From the supplement of paper PMC10567573

B1: MLL5 (parent)
chain: HDDGYMICCDKCSVWQHIDCMGID
B2: CPXM2 (parent)
chain: TASTKNCMVGYDMGATRCDFTLSK

Variants of: B1
Assay: protein stability index of a GFP-peptide fusion (GPS, HEK-293T) (PSI 1-6); higher = more stable
Conditions: c terminus: a fixed tail appended
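Further: lentivirally expressed fusions sorted by FACS into six bins by GFP to DsRed ratio, PSI derived from sequencing read proportions per bin multiplied by bin number.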

Protein stability index of substitutions, site by site:
C20: R 1.97; S 1.51; T 2.22; V 1.89; W 2.15; Y 1.68
M21: A 2.94; C 2.78; D 3.5; E 2.83; F 2.17; G 2.66; H 2.61; I 2.5; K 2.81; L 2.34; N 2.73; P 3.14; Q 2.91; R 2.85; S 2.41; T 2.91; V 2.34; W 2.03; Y 2.21
G22: A 2.2; C 3.79; D 3.8; E 2.4; F 2.04; H 2.79; I 2.06; K 2.78; L 1.81; M 2.25; N 2.58; P 2.39; Q 2.17; R 2.43; S 2.14; T 2.19; V 1.59; W 2.06; Y 2.24
I23: A 2.56; C 3.67; D 2.71; E 3.53; F 2.1; G 2.95; H 3.15; K 2.99; L 2.57; M 2.36; N 2.52; P 2.5; Q 2.89; R 2.83; S 2.58; T 2.85; V 2.95; W 1.77; Y 2.34
D24: A 2.17; C 2.68; E 2.46; F 1.89; G 2.19; H 2.29; I 2.21; K 2.13; L 2.79; M 1.56; N 2.09; P 2; Q 2.47; R 1.93; S 2.35; T 1.94; V 2.47; W 1.49; Y 1.61

Variants of: B2
Assay: as above
Conditions: c terminus: a fixed tail appended

Protein stability index, by site and new letter:
T1: A 2.66; C 1.68; D 3.69; E 3.37; G 1.88; H 1.82; I 1.8; K 2.05; L 2.18; M 2.45; N 2.51; P 2.1; Q 2.52; R 1.92; S 2.86; V 1.61; W 1.59; Y 1.71
A2: C 1.64; D 3.75; E 3.9; F 2.58; G 2.91; H 2.26; I 1.8; K 2.04; L 1.99; M 2.41; N 3.16; P 3.08; Q 2.94; R 2.68; S 2.58; T 2.06; V 2.21; W 1.73; Y 2.31
S3: A 2.3; C 2.08; D 3.57; E 3.06; F 1.63; G 2.47; H 1.97; I 1.67; K 1.99; L 2.16; M 2.1; N 2.37; P 2.57; Q 1.91; R 1.28; T 2.4; V 3.26; W 2.09; Y 1.88
T4: A 2.23; C 2.65; D 3.17; E 2.12; F 1.92; H 2; I 2.25; K 2.01; L 1.85; M 2.58; N 2.4; P 2.47; Q 2.25; R 1.91; S 1.93; W 1.82; Y 2
K5: A 2.3; C 1.74; D 3.25; E 3.21; F 2.25; G 2.46; H 2.4; I 2.04; L 2.29; M 2.38; N 2.28; P 3.18; Q 2.4; R 1.59; S 2.63; T 2.35; V 2.42; W 1.97; Y 1.72
N6: A 2.69; C 1.62; D 3.5; E 3.22; F 2.12; G 2.38; H 2.04; I 1.89; K 1.87; L 1.83; M 2.34; P 3.12; Q 2.72; R 2.04; S 2.66; T 3.1; V 2.16; W 2.34; Y 1.68
C7: A 3.74; D 4; E 4.44; F 3.21; G 3.75; H 3.48; I 3.11; K 3.18; L 3.27; M 3.06; N 3.84; P 3.48; Q 3.69; R 3.26; S 3.77; T 3.24; V 3.46; W 2.99; Y 2.71
M8: A 1.88; C 1.77; D 4.13; E 4.05; F 2.73; G 2.08; H 2.76; I 1.62; K 3.26; L 2.14; N 3.95; P 2.06; Q 2.62; R 1.35; S 2.48; T 2.42; V 2.03; W 2.15; Y 2.22
V9: A 2.62; C 2.31; D 3.58; E 3.33; F 1.63; G 3.52; H 2.3; I 2.49; K 2.12; L 2.05; M 2.42; N 2.81; P 2.89; Q 3.5; R 2.18; S 2.36; T 3.22; W 2.09; Y 2
G10: A 1.97; C 2.2; D 2.37; E 2.69; F 1.58; H 1.74; I 1.67; K 2.42; L 2.38; M 1.96; N 1.86; P 1.76; Q 1.73; R 1.84; S 2.75; T 1.93; V 2.72; W 1.64; Y 3.56
Y11: A 2.92; C 2.07; D 3.33; E 3.49; F 1.38; G 3.49; H 3.32; I 2.06; K 2.96; L 2.41; M 2.49; N 2.6; P 2.31; Q 3; R 2.59; S 2.28; T 2.85; V 2.33; W 2.23
D12: A 2.37; C 1.88; E 2.02; F 1.62; G 1.89; H 2.14; I 1.58; K 2.47; L 1.21; M 1.46; N 2.02; P 2.15; Q 2.14; R 2.58; S 2.72; T 1.98; V 2.44; W 1.98; Y 1.69
M13: A 2.74; C 2.08; D 3.76; E 3.92; F 2.01; G 2.99; H 2.64; I 2.11; K 1.91; L 2.58; N 3.21; P 2.31; Q 3.19; R 2.5; S 2.81; T 2.99; V 3.02; W 2.02; Y 2.54
G14: A 2.89; C 1.99; D 3.63; E 2.97; F 1.93; H 3; I 2.31; K 2.76
